The nature of the data set: yeast display, Sf9 membrane polyspecificity reagent, FACS + sequencing; frameworks hold sequencing errors. In short, it runs like this:
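Using colony PCR, genes from sorted yeast display clones were amplified, then sequenced on MiSeq at 2 × 250 and filtered by CDR length. The clones had been stained with 10% biotinylated, detergent-solubilized Sf9 membrane reagent for 1 hour at 4 °C and sorted by FACS into low and high (top ~1%) gates on anti-HA and streptavidin fluorescence. Polyreactivity labels come from the gate of origin.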
On to “QVQLVESGGGLVQAGGSLRLTCAASGSIFAAKAMGWYRQAPGKERELVAAIRTRTGSTYYADSVKGRFTISRDNAKNTVYLEMNSLKPEDTAVYYCAADGGVPFWIHSTYYYWGQGTQVTVSS”, for which the “polyreactivity (PSR sort gate)” value is given as “low polyreactivity”.
Next, “QVQLVESGGGLVQAGGSLRLTCAASGSIFAKNAMGWYRQAPGKERELVAAIDLNGGSTYYADSVKGRFTISRDNAKNTDYLQMNSLKPEDTAVYYCAVYYGHSSVIRSSPEYDSWGQGTQVTVSS”: “low polyreactivity”; “QVQLVESGGGLVQAGGSLRLTCAASGSIFDKNVMGSYRQAPGKERELVAAISSSGGSTYYADSVKGRFTISRDIAKNTVYLQMNSLKPVDSAVYYCAKVPGRDRADRYWDHYSHDYWGQGTQVTVSS”: “high polyreactivity”.
For “QVQLVESGGGLVQAGGSLRLTCAASGSIFDSNAMGWYRQAPGKERELVADIRGIGGSTFYADSVKWRFTISRDNAKNTVYLQMNSLKPEDTAVYYCAAVGKSPSRFGYWGQGTQVTVSS” the value was “low polyreactivity”; for “QVQLVESGGGLVQAGGSLRLTCAASGSIFGGYGMGWYRQAPGKERELVAAITSGTSTYYADSVKGRFTISRDNAKNTVYLQMNSLKPEDTAVYYCAARPYPHSAYEGDYWGRGTQVTVSS”, “low polyreactivity”; for “QVQLVESGGGLVQAGGSLRLTCAASGSIFGGYTMGWYRQAPGKERELVAAISRRGGNTYYADSVKGRFTISRDNAKYTVYLQMNSLKPEDTAVYYCNARPTTYNYDYWGQGTQVTVSS”, “high polyreactivity”.
Next, “QVQLVESGGGLVQAGGSLRLTCAASGSIFGLYAMGWYRHAPGKERELVAAISRTGGSTYYADSVKGRFTISRDNAKNTVYLQMNSLKPEDTAVYSCNAVYFRYRYNYWGQGTQVTVSS”: “high polyreactivity”; “QVQLVESGGGLVQAGGSLRLTCAASGSIFGVYTMGWYRQAPGKERELVAAITSAGSTYADSVKGRFTISRDNAKNTVYLQMNSLNPEDTEVYYCNAQSFLLSLRVELREPHEYWGQGTQVTVSS”: “low polyreactivity”.
Consider “QVQLVESGGGLVQAGGSLRLTCAASGSIFNGNAMGWYRQAPGKERELVAAISNVGRTDYADSVKGRFTISRDNAKNTVYLQMNSLKPEDTAVYYCAAGVYSGYNRYFAPRSWFGYYYWGQGTQVTVSS”, for which the “polyreactivity (PSR sort gate)” value was “low polyreactivity”.
For the sequence “QVQLVESGGGLVQAGGSLRLTCAASGSIFPKNAIGWYRQAPGKERQLVAGITSRTGRTYYADSVKGRFTISRDNAENTVYLQMNSLKPEDTAVYYCAARNPSGKGRYDYWGQGSQVTVSS”, the “polyreactivity (PSR sort gate)” value is given as “high polyreactivity”.
With “QVQLVESGGGLVQAGGSLRLTCAASGSIFRSYAMGWYRQAPGNERELVAAISWRGGRTYYADSVKGRFTISRDNAKNTVYLQRNSLKPADTAVYYCAARKRAQQGTRDHDYWGQGTQVTVSS”, the “polyreactivity (PSR sort gate)” value is “high polyreactivity”.
Next, “QVQLVESGGGLVQAGGSLRLTCAASGSIFSYNAKGRYRQAPGKERELVAGITTGDSTNYADSVKGRFTISRDNAKNTVYLQMNCLKPEDTAVYYCAATRLVSYHYPDLDSQQGGYWGQGTQVTVSS”: “low polyreactivity”; “QVQLVESGGGLVQAGGSLRLTCAASGSIFTKYAMGWYRQAPGKERELVAGISSSGCSTYYADSVKGRFTISRDYAKNTVYLQMNSLKPEDTAVYYCAARGYYKYDYWGQGTQVTVSS”: “high polyreactivity”.
For “QVQLVESGGGLVQAGGSLRLTCAASGSIFVGYAMGWYREAPGKEMELVAAITTRGDTTYYADSVKGRFTISRDNAKNTVYLQMNSLKPEHTAVYYCNTTSFFQAWPSDVQYDYWGQGTQVTVSS” the value was “low polyreactivity”.
Next, “QVQLVESGGGLVQAGGSLRLTCAASGSIFYAYAMGWYRQAPGKERELVAGITFSDDSTYYADSVKGRFTISRDNAKNTVYLQMNSLKPEDTAVYYCAADTISWYGNYYYWGQGTQVTVSS”: “high polyreactivity”.
On to “QVQLVESGGGLVQAGGSLRLTCAASGSIFYTNAMGWYRQAPGKERELVAAIRWSGGRTYYADSVKGRFTISRDNAKNTVYLQMNSLKPEDTAVYYCTVVVRYPSAYAYWGQGTQVTLSS”, for which the “polyreactivity (PSR sort gate)” value is listed as “high polyreactivity”.
Consider “QVQLVESGGGLVQAGGSLRLTCAASGSIIVTYAMGWYRQAPGKERELVAVINSGTSTNYADSVKGRFTISRDNAKNTVYLQMNSLKPEDTAVYYCNADPLVYYYQDYRFCMGYWGQGTQVTVSS”, for which the “polyreactivity (PSR sort gate)” value is “low polyreactivity”.
Take “QVQLVESGGGLVQAGGSLRLTCAASGSILDSNAMGWYRQAPGKERELVSAITSGGSTYYADSVKGRFTISRDNAKNTVYLQMNSLKPEDTAVYYCAAAYLGYGAVQPSYEGGYWGQGTQVTVSS”: the “polyreactivity (PSR sort gate)” value is recorded as “low polyreactivity”.
Next, “QVQLVESGGGLVQAGGSLRLTCAASGSILYYAMGWYRQAPGKERELVAAITRSGTTTYYAASVKGRFTISRDNAKKTVYLQMNSLKPEDTAVYFWAARTSYDYDYWGQGTQVTVSS”: “high polyreactivity”; “QVQLVESGGGLVQAGGSLRLTCAASGSITSINAMGWYRQAPGKERELVAAINWSSGSTYYADSVKGRFTISRDYAKNTVYLQKISLKPEDTAVYYCAVDRYFFAGYYGYEYWGQGTQGTVSS”: “high polyreactivity”; “QVQLVESGGGLVQAGGSLRLTCAASGSIVDANAMGLYRQAPGKERELVAAISSGDSTSYADSVKGRFTISRDNAKNTVYLQLNSLNPEDTAVYYCNAYVDSQGGFTLKHDYWGQGTQVTVSS”: “low polyreactivity”.
For “QVQLVESGGGLVQAGGSLRLTCAASGSTFDINAMGWYRQAPGKERELVASITFSGGSTYYADSVKGRFTISRDNAKNTVYLQMNSLKPEDTAVYYCAADSSGEYPRWLRYDYWGQGTQVTVSS” the value was “low polyreactivity”; for “QVQLVESGGGLVQAGGSLRLTCAASGSTFIRYTMVWYRQAPGKEREFVATITWSTGTTYYADSVKGRFTISRDNAKYSVYLQMNSLKPEDTAVYYCAAVYYYYTGITYDYWGQGTQVTVSS”, “high polyreactivity”.
For “QVQLVESGGGLVQAGGSLRLTCAASGSTFLGYAMGWYRQAPGKERELVAAINLSTSGTYYADSVKGRFTISRDNAKNTVYLQMNSLKPEDTAVYYCAAAYSNINYYYQYYYWGQGTQVTVSS” the value was “low polyreactivity”.
As to “QVQLVESGGGLVQAGGSLRLTCAASGSTFNAYTMGWYRQAPGKERELVAAISSGAGTYYADSVKGRFTISRDNAKYIVYLPMNSLKPEDTAVYYCAADPVGYYDPSVYWGQGTLVTVSS”, the “polyreactivity (PSR sort gate)” value is “low polyreactivity”.
For “QVQLVESGGGLVQAGGSLRLTCAASGSTFRHNAMGWYRQAPGKETELVAVITDGASTNYADSVKGRFTMSRDNAKNTVYLQLNSLKPEDTAVYYCAAYHRGYYTGREYYYWGQGTQVTVSS”, the “polyreactivity (PSR sort gate)” value is on record as “low polyreactivity”.
For “QVQLVESGGGLVQAGGSLRLTCAASGSTFRVNVMGWYRQAPGTERELVAAITTSGGSTYYADSVKGRFTISRDNAKNTVYLQMNSLKPEDTAVYYCKTTYPSGWGPDMDYWGQGTQVTVSS” the value was “low polyreactivity”; for “QVQLVESGGGLVQAGGSLRLTCAASGSTFSDYAMGWNRQAHGKERELVAGITGGGGTYYADSVKGRFTISRDNAKNTVYLQMNSLKPEDTALYYCAAGRRHGLGYWGQGTLVTVSS”, “low polyreactivity”.
For “QVQLVESGGGLVQAGGSLRLTCAASGSTFYYYTMGWYRQAPWKERELVAAITSAGSTHYADSVKGRFTISRDNAKNNVYLQMNSLKPEDTAVYYCAAKSHWWWRGYYYWGQGTQVTVSS”, the “polyreactivity (PSR sort gate)” value is “high polyreactivity”.
Next, “QVQLVESGGGLVQAGGSLRLTCAASGSTLIDNVMGWYRQAPGKERELVASITSSDGTTYADSVKGRFTISRDNAKNSVYLQMNSLKPEDTAVYYFAARPWYGTYNYWGEGTQVTVSS”: “low polyreactivity”; “QVQLVESGGGLVQAGGSLRLTCAASGTIFKRYAMRLYRQAPGKERELVATISSRGSCTNYADSLKGRFTISRDIAKNTVYLQMNSLKPQDTAVYYCASEVYRGDFWGQGTQVTVSS”: “high polyreactivity”; “QVQLVESGGGLVQAGGSLRLTCAASRRTFEHYAMGWYRQAPVKEREYVAAINSSDGGTYYADSVKGRFTISRDNAKNTVYLQMIRLKPDDSAVYYCAAAEFGSVPGYEMDYWGQGTQVTVSS”: “low polyreactivity”.
For “QVQLVESGGGLVQAGGSLRLTCAATGIIFSYYAKGWYRQAPGKERELVAAISWGGGSTFYADSVKGRFTISRDNAKKTVSLQMKSLKPEDNAVLFCDADYGGDFGMDYCGQGTQVTVSS” the value was “low polyreactivity”.
Next, “QVQLVESGGGLVQAGGSLRLTCAATGSTFHLYGMGWYRKAPGKESELVAAITKRGTSTYYADSVKGRFTISRDNAKNTVYLQINSLKPEDTAVYYCADEYTKEQRGFDYWGQGTQVTLSS”: “high polyreactivity”; “QVQLVESGGGLVQAGGSLRLTCADSGSILYINAMGRYIQAPGKEREWVAAITYSGGSTYYADSVKGRFTISRDNAKNTVYLQMNSLKPEDTAVYYCAADAVVAGRYDGHDYWGQGTQVTVSS”: “low polyreactivity”; “QVQLVESGGGLVQAGGSLRLTCDASGRTFYWNAMGWYRQAPGKERELVAAISNCGTTTYYADSVKGRFTISRDNAKNTVYLQLNSLKPEDTAVYYCAADIWYFDYEYWGQGTQVTLSS”: “high polyreactivity”.
Consider “QVQLVESGGGLVQAGGSLRLTCDASGSTFYHNAMGWYRQAPGKERELVAAITTSGGSTYYADSVKWRFTISRDNAKNTVYLQMNSLKPEDSAVYYCNVYRPYLAPYDYWGQGTQVTVSS”, for which the “polyreactivity (PSR sort gate)” value is on record as “low polyreactivity”.
On to “QVQLVESGGGLVQAGGSLRLTSAASGRIIDQNAMGWYRQAPGKERELVAAITSGGSTNYADSVKGRFTISRDNAKNTVYLQMNSLKPEDTAVYYCNSRDASRRYDYDFLERDSWGQGTQVTVSS”, for which the “polyreactivity (PSR sort gate)” value is “low polyreactivity”.
For “QVQLVESGGGLVQAGGSLRLTSAASGRTFFRYAMRWYRQAPGKERELVAAISRGGGRTYYADSVKGRFTISRDNAKNTVYLQMNSLKPEDTAVYYCNKTERSGSNYLGQGTQVTVSS” the value was “high polyreactivity”.
With “QVQLVESGGGLVQAGGSLRLTSADSGRTFYKYAMGWYIQAPGKERELVAANSQSGGSTYYADSVNGRFTISRDNAKNTVYLQMNSLKPEDTAVYYCAARRLPRKERKLYYWGQGSQVTVSS”, the “polyreactivity (PSR sort gate)” value is given as “high polyreactivity”.
For “QVQLVESGGGLVQAGGSLRLTSADTGFNFGSYAMGWSRQAHGKEREFVAAISSNGGNTYYADSVKGRFTISRDNAKNTVYLEINSLKPEDTAVSYCAARYPSGTRKWYGYWGQGTQVTVSS” the value was “high polyreactivity”.

These data come from the nanobody polyreactivity screen of Harvey et al. (2022).
